Laboratory results as given in patent US20140023585A1, “177 LUTETIUM-LABELED BOMBESIN ANALOGS FOR RADIOTHERAPY” (UNIVERSITATSSPITAL BASEL, priority 2010, published 2014).

Experiments:
PC-3 tumors [1] = assay: Radionuclide therapy study with repeated injections; format: in vivo, nude mice; settings: end of the study, compared to controls
Protocol: (§1) A first therapy study was conducted on 25 nude mice (15-20 g) subcutaneously implanted with PC-3 ([…]). For toxicity study the same therapy protocol was applied to 25 CD1 mice. Thirteen days after implantation the mice were randomly divided in 5 groups and treated as described below: • 1. […] 200 pmol of ^natcompound 2 • 5. PBS
According to the protocol agreed upon, three injections per week (days 0, 2, 4) were done and the procedure was repeated (days 14, 16, 18) after one pause week. Based on the biodistribution data of compound 3 with ^111In we observed that injections after 48 h would maintain stable the uptake in the tumor. The pause week is, in our opinion, important for the safety of the animals. The mice were periodically monitored by measuring tumor size and body mass. Animals with loss of >20% of their original weight or with tumor size >20 mm in diameter were sacrificed. Tumor sizes were determined by caliper measurements in two dimensions and tumor volumes were calculated assuming an elliptical shape.

PC-3 tumors [2] = assay: Dosimetry by MIRD methodology from biodistribution data; format: in vivo; settings: mice
Excerpt: Doses of 150-200 Gy in the tumor could be achieved considering a maximum activity of 450 MBq to be injected per animal. Kidneys were not critical instead it was the pancreas to be the dose limiting organ. (In contrast to rodent pancreas, human pancreas expresses only very low amounts of the GRPr.)

[3] = Toxicity study, same therapy protocol in CD1 mice; format: in vivo
Protocol: as §1

[4] = 37° C., 5% CO2, up to 4 days of incubation
Protocol: The mixture was incubated in a 5% CO2, 37° C. environment. At different time points, 100-μL aliquots (in triplicate) were removed and treated with 200 μL of EtOH to precipitate serum proteins. Samples were then centrifuged for 15 min at 500 rpm. […] The supernatant was analyzed with HPLC (eluents: A=0.1% trifluoroacetic acid in water and B=acetonitrile; gradient: 0 min 95% of A; 20 minutes 50% of A) to determine the stability of the peptide in serum.

## CC(C)C[C@H](NC(=O)C[C@H](O)[C@H](CC(C)C)NC(=O)[C@H](Cc1c[nH]cn1)NC(=O)CNC(=O)[C@@H](NC(=O)[C@H](C)NC(=O)[C@H](Cc1c[nH]c2ccccc12)NC(=O)[C@H](CCC(N)=O)NC(=O)[C@@H](Cc1ccccc1)NC(=O)CN1CCC(NC(=O)CN2CCN(CC(=O)O)CCN(CC(=O)O)CCN(CC(=O)O)CC2)CC1)C(C)C)C(N)=O [compound 2, [^177Lu]-DOTA-4-amino-1-carboxymethylpiperidine-D-Phe-Gln-Trp-Ala-Val-Gly-His-Sta-Leu-NH2, metal not drawn]
PC-3 tumors [1]
  histopathological changes: no compound (radio-peptide) related histopathological changes
PC-3 tumors [2]
  dose limiting organ: pancreas
[3]
  survival and health of CD1 animals: alive and look healthy
[3]; stabilized after 5-6 months
  body weight of CD1 animals: increased
[4]
  stability in human serum: remarkable stability
